Earlier results, collected in article PMC5911825.

Biological target: Cys797 (UniProt position 797, LMPFGCLLDYV)
Assay: other (described only as 'titration experiments')
Conditions: wild-type EGFR; ligand state not stated

Substance: Epidermal growth factor receptor (EGFR), wild type (Homo sapiens)
- pKa: 5.5
